Here are results for 12 molecules from US20240293512A1 (HANMI PHARM, published 2024).

T1: human GIP receptor (human, UniProt P48546 22-466)
T1 sequence (looked up): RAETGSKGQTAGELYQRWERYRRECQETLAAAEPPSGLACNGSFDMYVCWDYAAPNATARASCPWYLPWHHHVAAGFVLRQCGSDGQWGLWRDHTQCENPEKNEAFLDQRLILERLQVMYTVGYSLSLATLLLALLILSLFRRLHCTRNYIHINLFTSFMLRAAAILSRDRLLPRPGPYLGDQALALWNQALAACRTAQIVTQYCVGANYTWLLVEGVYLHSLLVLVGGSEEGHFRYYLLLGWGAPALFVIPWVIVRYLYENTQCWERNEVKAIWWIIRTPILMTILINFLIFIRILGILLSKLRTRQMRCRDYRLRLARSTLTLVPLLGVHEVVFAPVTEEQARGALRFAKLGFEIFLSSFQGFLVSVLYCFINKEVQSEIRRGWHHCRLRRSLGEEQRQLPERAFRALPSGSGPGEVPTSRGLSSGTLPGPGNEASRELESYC

Bridge positions count the residues as written; N and C are the ends. Square brackets hold non-standard residues; d marks the D form. Ends that are not written are not given here. * marks the point of attachment. Acetyl(2-(4-imidazolyl)) = O=C(Cc1c[nH]cn1)*; Aib = CC(C)(N)C(=O)O Some results are limits rather than exact numbers.

In one experiment the target is T1, human GIP receptor. The experiment is described as follows: cell-based or functional assay.
For [Acetyl(2-(4-imidazolyl))][Aib]QGTFTSDYSIAMDEIHQKDFVNWLLAQKC (bridge 16-20) [triple agonist of SEQ ID NO: 92], the “In vitro activity compared with native peptide (%) vs GIP (cAMP EC50)” value (from here on “In vitro activity … (%) vs GIP (cAMP EC50)”) turned out to be 0.4%.
For [Acetyl(2-(4-imidazolyl))][Aib]QGTFTSDYSKYLDEKRQKEFVQWLLDTKC (bridge 16-20) [triple agonist of SEQ ID NO: 89], the “In vitro activity … (%) vs GIP (cAMP EC50)” value was < 0.1%.
Turning to [Acetyl(2-(4-imidazolyl))][Aib]EGTFTSDYSIAMDEIHQKDFVNWLLAQC (bridge 16-20) [triple agonist of SEQ ID NO: 83], the “In vitro activity … (%) vs GIP (cAMP EC50)” value was 0.4%.
On to Y[Aib]QGTFTSDYSKALDEKAAKEFVNWLLDQHPSSGQPPPSC (bridge 16-20) [triple agonist of SEQ ID NO: 101], for which the “In vitro activity … (%) vs GIP (cAMP EC50)” value stood at 40.1%.
On to [Acetyl(2-(4-imidazolyl))][Aib]QGTFTSDYSKYLDEKRQKEFVNWLLAQKC (bridge 16-20) [triple agonist of SEQ ID NO: 93], for which the “In vitro activity … (%) vs GIP (cAMP EC50)” value is 0.7%.
Regarding Y[Aib]QGTFTSDYSKALDEKAAKEFVQWLLDQHPSSGQPPPSC (bridge 16-20) [triple agonist of SEQ ID NO: 100], the “In vitro activity … (%) vs GIP (cAMP EC50)” value was determined as 118%.
As to [Acetyl(2-(4-imidazolyl))][Aib]QGTFTSDYSIAMDEIHQKDFVNWLLNTKC (bridge 16-20) [triple agonist of SEQ ID NO: 94], the “In vitro activity … (%) vs GIP (cAMP EC50)” value is < 0.1%.
Regarding Y[Aib]QGTFTSDYSKALDEKAAKDFVNWLLDHHPSSGQPPPSC (bridge 16-20) [triple agonist of SEQ ID NO: 99], the “In vitro activity … (%) vs GIP (cAMP EC50)” value was determined as 57.7%.
With Y[Aib]QGTFTSDYSKALDEKAAKEFVNWLLDHHPSSGQPPPSC (bridge 16-20) [triple agonist of SEQ ID NO: 98], the “In vitro activity … (%) vs GIP (cAMP EC50)” value worked out at 47.1%.
Take [Acetyl(2-(4-imidazolyl))][Aib]QGTFTSDYSKYLDEKRQKEFVNWLLAQC (bridge 16-20) [triple agonist of SEQ ID NO: 86]: the “In vitro activity … (%) vs GIP (cAMP EC50)” value is 0.2%.
On the same count and under the same terms, the value for [Acetyl(2-(4-imidazolyl))][Aib]QGTFTSDYSIAMDEIHQKDFVNWLLNTC (bridge 16-20) [triple agonist of SEQ ID NO: 87] was < 0.1%; that for H[Aib]QGTFTSDVSKYLDGQAAQEFVAWLLAGGGPSSGAPPPSC [triple agonist of SEQ ID NO: 10] was < 0.1%.

A further experiment addresses human GLP-1 receptor (human, UniProt P43220 24-463). The experiment is described as follows: cell-based or functional assay.
Turning to [Acetyl(2-(4-imidazolyl))][Aib]QGTFTSDYSIAMDEIHQKDFVNWLLAQKC (bridge 16-20) [triple agonist of SEQ ID NO: 92], the “In vitro activity compared with native peptide (%) vs GLP-1 (cAMP EC50)” value (“In vitro activity … (%) vs GLP-1 (cAMP EC50)” for short) was found to be 0.8%.
For [Acetyl(2-(4-imidazolyl))][Aib]QGTFTSDYSKYLDEKRQKEFVQWLLDTKC (bridge 16-20) [triple agonist of SEQ ID NO: 89], the “In vitro activity … (%) vs GLP-1 (cAMP EC50)” value turned out to be 7.1%.
For the molecule [Acetyl(2-(4-imidazolyl))][Aib]EGTFTSDYSIAMDEIHQKDFVNWLLAQC (bridge 16-20) [triple agonist of SEQ ID NO: 83], the “In vitro activity … (%) vs GLP-1 (cAMP EC50)” value turned out to be 47.3%.
On the same count and under the same terms, the value for Y[Aib]QGTFTSDYSKALDEKAAKEFVNWLLDQHPSSGQPPPSC (bridge 16-20) [triple agonist of SEQ ID NO: 101] was 23.2%.
On the same count and under the same terms, the same measure for [Acetyl(2-(4-imidazolyl))][Aib]QGTFTSDYSKYLDEKRQKEFVNWLLAQKC (bridge 16-20) [triple agonist of SEQ ID NO: 93]: 5.7%; for Y[Aib]QGTFTSDYSKALDEKAAKEFVQWLLDQHPSSGQPPPSC (bridge 16-20) [triple agonist of SEQ ID NO: 100]: 42.2%.
For the molecule [Acetyl(2-(4-imidazolyl))][Aib]QGTFTSDYSIAMDEIHQKDFVNWLLNTKC (bridge 16-20) [triple agonist of SEQ ID NO: 94], the “In vitro activity … (%) vs GLP-1 (cAMP EC50)” value turned out to be 0.5%.
On the same count and under the same terms, the same measure for Y[Aib]QGTFTSDYSKALDEKAAKDFVNWLLDHHPSSGQPPPSC (bridge 16-20) [triple agonist of SEQ ID NO: 99]: 20.9%; for Y[Aib]QGTFTSDYSKALDEKAAKEFVNWLLDHHPSSGQPPPSC (bridge 16-20) [triple agonist of SEQ ID NO: 98]: 28.1%; for [Acetyl(2-(4-imidazolyl))][Aib]QGTFTSDYSKYLDEKRQKEFVNWLLAQC (bridge 16-20) [triple agonist of SEQ ID NO: 86]: 28.4%.
Consider [Acetyl(2-(4-imidazolyl))][Aib]QGTFTSDYSIAMDEIHQKDFVNWLLNTC (bridge 16-20) [triple agonist of SEQ ID NO: 87], for which the “In vitro activity … (%) vs GLP-1 (cAMP EC50)” value was 0.9%.
As for H[Aib]QGTFTSDVSKYLDGQAAQEFVAWLLAGGGPSSGAPPPSC [triple agonist of SEQ ID NO: 10], the “In vitro activity … (%) vs GLP-1 (cAMP EC50)” value amounted to 46%.

The target in the next experiment is human GCG receptor (human, UniProt P47871 26-477). The experiment is described as follows: cell-based or functional assay.
Sequence of human GCG receptor (P47871 26-477): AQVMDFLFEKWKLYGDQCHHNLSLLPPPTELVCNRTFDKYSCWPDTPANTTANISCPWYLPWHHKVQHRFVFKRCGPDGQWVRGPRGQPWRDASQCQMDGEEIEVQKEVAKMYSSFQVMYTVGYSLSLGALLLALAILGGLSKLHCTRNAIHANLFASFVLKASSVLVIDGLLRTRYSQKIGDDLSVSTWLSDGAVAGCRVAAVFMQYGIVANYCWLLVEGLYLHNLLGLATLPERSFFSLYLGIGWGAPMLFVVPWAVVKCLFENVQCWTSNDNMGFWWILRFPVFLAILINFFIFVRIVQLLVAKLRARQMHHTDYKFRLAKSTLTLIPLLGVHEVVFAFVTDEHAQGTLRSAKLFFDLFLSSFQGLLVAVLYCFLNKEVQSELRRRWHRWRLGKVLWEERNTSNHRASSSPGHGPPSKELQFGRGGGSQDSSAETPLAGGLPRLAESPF
[Acetyl(2-(4-imidazolyl))][Aib]QGTFTSDYSIAMDEIHQKDFVNWLLAQKC (bridge 16-20) [triple agonist of SEQ ID NO: 92]: the “In vitro activity compared with native peptide (%) vs Glucagon (cAMP EC50)” value (shortened to “In vitro activity … (%) vs Glucagon (cAMP EC50)”) is < 0.1%.
On the same count and under the same terms, the same measure for [Acetyl(2-(4-imidazolyl))][Aib]QGTFTSDYSKYLDEKRQKEFVQWLLDTKC (bridge 16-20) [triple agonist of SEQ ID NO: 89]: 0.7%; for [Acetyl(2-(4-imidazolyl))][Aib]EGTFTSDYSIAMDEIHQKDFVNWLLAQC (bridge 16-20) [triple agonist of SEQ ID NO: 83]: 1.3%.
As to Y[Aib]QGTFTSDYSKALDEKAAKEFVNWLLDQHPSSGQPPPSC (bridge 16-20) [triple agonist of SEQ ID NO: 101], the “In vitro activity … (%) vs Glucagon (cAMP EC50)” value came out at 13.9%.
As for [Acetyl(2-(4-imidazolyl))][Aib]QGTFTSDYSKYLDEKRQKEFVNWLLAQKC (bridge 16-20) [triple agonist of SEQ ID NO: 93], the “In vitro activity … (%) vs Glucagon (cAMP EC50)” value amounted to 0.3%.
Same read-out and setting: the value for Y[Aib]QGTFTSDYSKALDEKAAKEFVQWLLDQHPSSGQPPPSC (bridge 16-20) [triple agonist of SEQ ID NO: 100] was 12.7%; that for [Acetyl(2-(4-imidazolyl))][Aib]QGTFTSDYSIAMDEIHQKDFVNWLLNTKC (bridge 16-20) [triple agonist of SEQ ID NO: 94] was < 0.1%.
Same read-out and setting: the same measure for Y[Aib]QGTFTSDYSKALDEKAAKDFVNWLLDHHPSSGQPPPSC (bridge 16-20) [triple agonist of SEQ ID NO: 99]: 14.9%; for Y[Aib]QGTFTSDYSKALDEKAAKEFVNWLLDHHPSSGQPPPSC (bridge 16-20) [triple agonist of SEQ ID NO: 98]: 8.2%.
Turning to [Acetyl(2-(4-imidazolyl))][Aib]QGTFTSDYSKYLDEKRQKEFVNWLLAQC (bridge 16-20) [triple agonist of SEQ ID NO: 86], the “In vitro activity … (%) vs Glucagon (cAMP EC50)” value amounted to 0.4%.
For the molecule [Acetyl(2-(4-imidazolyl))][Aib]QGTFTSDYSIAMDEIHQKDFVNWLLNTC (bridge 16-20) [triple agonist of SEQ ID NO: 87], the “In vitro activity … (%) vs Glucagon (cAMP EC50)” value is < 0.1%.
On the same count and under the same terms, the same measure for H[Aib]QGTFTSDVSKYLDGQAAQEFVAWLLAGGGPSSGAPPPSC [triple agonist of SEQ ID NO: 10]: < 0.1%.
